From US20260217760A1 (Chugai, published 2026)

What was measured:
protein A [1] = target: T1, protein A (UniProt P38507 37-327); assay: HiTrap protein A HP column, pH gradient elution
T1 construct: Immobilised on resin; also called rProtein A Sepharose Fast Flow column (GE Healthcare); HiTrap protein A HP column (GE Healthcare)

protein A [2] = target: T1, protein A; assay: HiTrap protein A HP column, pH gradient elution; size exclusion analysis
protein A [3] = target: T1, protein A; assay: rProtein A Sepharose Fast Flow column, stepwise pH elution; fractions analysed by cation exchange chromatography
protein A [4] = target: T1, protein A; assay: rProtein A Sepharose Fast Flow column, elution at pH 3.6; cation exchange analysis
protein A [5] = target: T1, protein A; assay: rProtein A Sepharose Fast Flow column, elution at pH 3.6 and 2.7; cation exchange analysis

B1: homomeric antibody having the H chain of the anti-GPC3 antibody (from no6) (antibody)
heavy: DVVMTQSPLSLPVTPGEPASISCRSSQSLVHSNRNTYLHWYLEKPGQSPQLLIYKVSNRFSGVPDRFSGSGSGTDFTLKISRVEAEDVGVYYCSQNTHVPPTFGQGTKLEIKSSASTKGPSVFPLAPSSKSTSGGTAALGCLVKDYFPEPVTVSWNSGALTSGVHTFPAVLQSSGLYSLSSVVTVPSSSLGTQTYICNVNHKPSNTKVDKKVEPKSCDKTHTCPPCPAPEAAGGPSVFLFPPKPKDTLMISRTPEVTCVVVDVSHEDPEVKFNWYVDGVEVHNAKTKPREEQYASTYRVVSVLTVLHQDWLNGKEYKCKVSNKALPAPIEKTISKAKGQPREPQVYTLPPSRKELTKNQVSLTCLVKGFYPSDIAVEWESNGQPENNYKTTPPVLDSDGSFFLYSKLTVDKSRWQQGNVFSCSVMHEALHNRYTQKSLSLSP
light: QVQLVQSGAEVKKPGASVKVSCKASGYTFTDYEMHWIRKPPGKGLEWIGAINPKTGDTAYSQKFKGRVTLTADKSTSTAYMELSSLTSEDTAVYYCTRFYSYTYWGRGTLVTVSSASVAAPSVFIFPPSDEQLKSGTASVVCLLNNFYPREAKVQWKVDNALQSGNSQESVTEQDSKDSTYSLSSTLTLSKADYEKHKVYACEVTHQGLSSPVTKSFNRGEC
notes: also called no6-Gh-H homomer
B1: no binding (protein A [1]).

B2: homomeric antibody NTA4L-G3 (antibody, human IgG1, kappa, L234A L235A, N297A)
heavy: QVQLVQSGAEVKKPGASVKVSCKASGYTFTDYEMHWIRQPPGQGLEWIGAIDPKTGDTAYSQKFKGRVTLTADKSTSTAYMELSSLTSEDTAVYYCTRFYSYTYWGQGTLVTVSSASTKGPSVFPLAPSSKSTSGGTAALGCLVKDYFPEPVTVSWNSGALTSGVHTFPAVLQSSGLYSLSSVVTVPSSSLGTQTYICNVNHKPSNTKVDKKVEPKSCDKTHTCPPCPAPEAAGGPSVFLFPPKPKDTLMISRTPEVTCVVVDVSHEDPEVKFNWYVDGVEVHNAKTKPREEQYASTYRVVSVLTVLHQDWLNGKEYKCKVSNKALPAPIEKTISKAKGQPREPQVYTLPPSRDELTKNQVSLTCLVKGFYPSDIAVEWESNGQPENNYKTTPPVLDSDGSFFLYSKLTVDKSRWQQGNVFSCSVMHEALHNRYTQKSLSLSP
light: DVVMTQSPLSLPVTPGEPASISCRSSQSLVHSNRNTYLHWYLQKPGQSPQLLIYKVSNRFSGVPDRFSGSGSGTDFTLKISRVEAEDVGVYYCSQNTHVPPTFGQGTKLEIKRTVAAPSVFIFPPSDEQLKSGTASVVCLLNNFYPREAKVQWKVDNALQSGNSQESVTEQDSKDSTYSLSSTLTLSKADYEKHKVYACEVTHQGLSSPVTKSFNRGEC
notes: Homomeric by-product; also called NTL4L-G3
B2: no binding (protein A [2]).

B3: J142-z72/L180-k (antibody, human IgG4 S228P, kappa)
heavy: QVQLVQSGSELKKPGASVKVSCKASGYTFTDNNMDWVRQAPGQGLEWMGDINTRSGGSIYNEEFQDRVTMTIDKSTGTAYMELSSLRSEDTAVYYCARRRSYGYYHDEWGEGTLVTVSSASTKGPSVFPLAPCSRSTSESTAALGCLVKDYFPEPVTVSWNSGALTSGVHTFPAVLQSSGLYSLSSVVTVPSSSLGTKTYTCNVDHKPSNTKVDKRVESKYGPPCPPCPAPEFLGGPSVFLFPPKPKDTLMISRTPEVTCVVVDVSQEDPEVQFNWYVDGVEVHNAKTKPREEQFNSTYRVVSVLTVLHQDWLNGKEYKCKVSNKGLPSSIEKTISKAKGQPREPQVYTLPPSQEEMTKNQVSLTCLVKGFYPSDIAVEWESNGQPENNYKTTPPVLDSDGSFFLYSRLTVDKSRWQEGNVFSCSVMHEALHNRFTQKSLSLSP
light: DIQMTQSPSSLSASVGDRVTITCKASRNIERNLAWYQQKPGQAPELLIYSASRKESGVPDRFSGSRYGTDFTLTISSLQPEDLATYYCQQYYSPPLTFGGGTKVEIKRTVAAPSVFIFPPSDEQLKSGTASVVCLLNNFYPREAKVQWKVDNALQSGNSQESVTEQDSKDSTYSLSSTLTLSKADYEKHKVYACEVTHQGLSSPVTKSFNRGEC
notes: Homomeric by-product in culture medium of Q153-G4d/J142-z72/L180-k; also called homomeric antibody J142-z72; homomeric antibody against FX
B3: no binding (protein A [3]).

B4: J300-z107/L210-k (antibody, human IgG4 S228P, kappa)
heavy: QVQLVQSGSELKKPGASVKVSCKASGYTFTDNNMDWVRQAPGQGLEWMGDINTRSGGSIYNEEFQDRVIMTVDKSTDTAYMELSSLRSEDTAVYHCARRKSYGYYLDEWGEGTLVTVSSASTKGPSVFPLAPCSRSTSESTAALGCLVKDYFPEPVTVSWNSGALTSGVHTFPAVLQSSGLYSLSSVVTVPSSSLGTQTYTCNVDHKPSNTKVDKRVESKYGPPCPPCPAPEFLGGPSVFLFPPKPKDTLMISRTPEVTCVVVDVSQEDPEVQFNWYVDGVEVHNAKTKPREEQYNSTYRVVSVLTVLHQDWLNGKEYKCKVSNKGLPSSIEKTISKAKGQPREPQVYTLPPSQEEMTKNQVSLTCLVKGFYPSDIAVEWESNGQPENNYKTTPPVLDSDGSFFLYSKLTVDKSRWQEGNVFSCSVMHEALHNRYTQESLSLSP
light: DIQMTQSPSSLSASVGDRVTITCKASRNIERNLAWYQQKPGQAPELLIYSASRKESGVPDRFSGSRYGTDFTLTISSLQPEDIATYYCQQYSSPPLTFGGGTKVEIKRTVAAPSVFIFPPSDEQLKSGTASVVCLLNNFYPREAKVQWKVDNALQSGNSQESVTEQDSKDSTYSLSSTLTLSKADYEKHKVYACEVTHQGLSSPVTKSFNRGEC
notes: also called homomeric antibody J300-z107; homomeric antibody against FX
B4: no binding (protein A [4]).

B5: J142-z73/L180-k (antibody, human IgG4 S228P, kappa)
heavy: QVQLVQSGSELKKPGASVKVSCKASGYTFTDNNMDWVRQAPGQGLEWMGDINTRSGGSIYNEEFQDRVTMTIDKSTGTAYMELSSLRSEDTAVYYCARRRSYGYYHDEWGEGTLVTVSSASTKGPSVFPLAPCSRSTSESTAALGCLVKDYFPEPVTVSWNSGALTSGVHTFPAVLQSSGLYSLSSVVTVPSSSLGTKTYTCNVDHKPSNTKVDKRVESKYGPPCPPCPAPEFLGGPSVFLFPPKPKDTLMISRTPEVTCVVVDVSQEDPEVQFNWYVDGVEVHNAKTKPREEQFNSTYRVVSVLTVLHQDWLNGKEYKCKVSNKGLPSSIEKTISKAKGQPREPQVYTLPPSQEEMTKNQVSLTCLVKGFYPSDIAVEWESNGQPENNYKTTPPVLDSDGSFFLYSRLTVDKSRWQEGNVFSCSVMHEALHNRFTQESLSLSP
light: DIQMTQSPSSLSASVGDRVTITCKASRNIERNLAWYQQKPGQAPELLIYSASRKESGVPDRFSGSRYGTDFTLTISSLQPEDLATYYCQQYYSPPLTFGGGTKVEIKRTVAAPSVFIFPPSDEQLKSGTASVVCLLNNFYPREAKVQWKVDNALQSGNSQESVTEQDSKDSTYSLSSTLTLSKADYEKHKVYACEVTHQGLSSPVTKSFNRGEC
notes: Homomeric by-product in culture medium of Q153-z7/J142-z73/L180-k; also called homomeric antibody J142-z73; homomeric antibody against FX
B5: no binding (protein A [5]).
